Data reported in patent publication US20180299467A1.

Experiments:
F-actin [1] = assay: co-sedimentation with F-actin in the presence of TM, densitometry of pellet (FIG. 3C)
[2] = test system: citrullinated F-actin (treated with PAD2)
F-actin [3] = test system: F-actin

Row | percent of TnI present in the pellet (F-actin [1]) [%] | Substance | actomyosin HMM-ATPase activity (rate of ATP hydrolysis) [2] [nmol Pi] | actomyosin HMM-ATPase activity (F-actin [3]) [nmol Pi] | decrease in actomyosin HMM-ATPase activity against non-citrullinated HMM (F-actin [3]) | increase in actomyosin HMM-ATPase rate against unmodified F-actin [2]
1 | > 95 | cardiac troponin I (TnI), non-citrullinated |  |  |  | 
2 |  | citrullinated heavy meromyosin (HMM treated with PAD2) | 0.368±0.005 | 0.22±0.002 | corresponding to 30% decrease in the enzyme activity | 
3 |  | heavy meromyosin (HMM), non-citrullinated |  | 0.32±0.01 |  | increased actomyosin HMM-ATPase rate by 55% compared to the unmodified F-actin
4 | > 95 | citrullinated cardiac troponin I (TnI treated with PAD2) |  |  |  | 
